Reference: a protein production outcome set (Wang et al. 2014)

Test: label from the status in PepcDB records
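Note: failed if final PepcDB status was selected cloned or expressed and not failed if soluble or beyond.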

| Sequence | protein production |
| --- | --- |
| QHDSSRKLGLLQEMIGGGWWRYWAEQELFELAPALHDSLGLTGEYRRVPLEHLQGLLQPADADELGLRLRASLRSGQALAQDLCLRQPDSRGERRWLRIEGRPLGRGSALGLSGVLLDISEGRRQEER | failed |
| QHTEERELKKRLMNTARTVSEMTEVKEALARKKQTEAVRHAVEEIRMINEADYIVVMDMNHIRYTHPVSTSIGKKSEGADEEAAFAEHIYFSEAKGEIGTAVRAFYPVKDQDLNQIGVVLVGKTLPGIADILLHLKRD | not failed |
| QKDANASSEFYINKLGQTQELEDQQTYKLLAARVLIRENKVEQSAALLRELGELNDAQKLDRALIEARISAAKNANEVAQNQLRALDLNKLSPSQKSRYYETLAIVAENRKDMIEAVKARIEMDKNLTDVQRHQDNIDKTWALLRSANTGVINNASDEGNAALGGWLTLIKAYNDYIRQPVQLSQALQSWKNAYPNHAAATLFPKELLTLLNFQQTNVSQIGLLLPLSGDGQILGTTIQSGFNDAKGNSTIPVQVFDTSMNSVQDIIAQAKQAGIKTLVGPLLKQNLDVILADPAQIQGMDVLALNATPNSRAIPQLCYYGLSPEDEAESAANKMWNDGVRNPLVAMPQNDLGQRVGNAFNVRWQQLAGTDANIRYYNLPADVTYFVQENNSNTTALYAVASPTELAEMKGYLTNIVPNLAIYASSRASASATNTNTDFIAQMNGVQFSDIPFFKDTNSPQYQKLAKSTGGEYQLMRLYAMGADAWLLINQFNELRQVPGYRLSGLTGILSADTNCNVERDMTWYQYQDGAIVPVAN | failed |
| QKNPDSYNGAVRENYTWSQDYTDLEVRVPVPKHVVKGKQVSVALSSSSIRVAMLEENGERVLMEGKLTHKINTESSLWSLEPGKCVLVNLSKVGEYWWNAILEGEEPIDID | not failed |
| QLPSYRFNPNNHQSEQTLCVVCMCDFESRQLLRVLPCNHEFHAKCVDKWLKANRTCPICRAD | not failed |
| QLRDFSSIIQTCSGNIQRISQATAQIKNLMSQLGTKQDSSKLQENLQQLQHSTNQLAKETNELLKELGSLPLPLSTSEQRQQRLQKERLMNDFSAALNNFQAVQRRVSEKEKESIAR | not failed |
| QLREIVEKVSRVDDVHLALDILVKETCAALRTECCTIYLANEEMQRLELMATQGLIFEGDSIHINFNEGLVGLVKRSAEPLNLAEASKHPEFKFFPQLGEQVYHSFLATPIIHRKQVLGVLVIQQKTPRLFSEMEESFLVTLSAQLAVIIAHAQSLGHWQ | failed |
| QLSMLNPQKPMRRSEQHIARQVFSGLTRLDEEEQLQPDLAHAWQALSDTHWRFYLRPGVRFHNGNLLTTELIVQNLWQLRLLNLFAHIDRVDSPYPWAVDVHLQKPDTRLPLLLAEACAKILPAESDRNPDFDLMPVGTGPYKVVLND | failed |
| QLSSFETCAEKEESANTTESAIFEYHCEMSFDPNLLHNNGHNGYPNGTSAALRETGVIEKLLTSYGFIQCSERQARLFFHCSQYNGNLQDLKVGDDVEFEVSSDRRTGKPIAVKLVKIKQEILPEERMNGQVVCAVPHNLESKSPAAPGQSPTGSVCYERNGEVFYLTYTPEDVEGNVQLETGDKINFVIDNNKHTGAVSARNIMLLKKKQARCQGVVCAMKEAFGFIERGDVVKEIFFHYSEFKGDLETLQPGDDVEFTIKDRNGKEVATDVRLLPQGTVIFEDISIEHFEGTVTKVIPKVPSKNQNDPLPGRIKVDFVIPKELPFGDKDTKSKVTLLEGDHVRFNISTDRRDKLERATNIEVLSNTFQFTNEAREMGVIAAMRDGFGFIKCVDRDVRMFFHFSEILDGNQLHIADEVEFTVVPDMLSAQRNHAIRIKKLPKGTVSFHSHSDHRFLGTVEKEATFSNPKTTSPNKGKEKEAEDGIIAYDDCGVKLTIAFQAKDVEGSTSPQIGDKVEFSISDKQRPGQQVATCVRLLGRNSNSKRLLGYVATLKDNFGFIETANHDKEIFFHYSEFSGDVDSLELGDMVEYSLSKGKGNKVSAEKVNKTHSVNGITEEADPTIYSGKVIRPLRSVDPTQTEYQGMIEIVEEGDMKGEVYPFGIVGMANKGDCLQKGESVKFQLCVLGQNAQTMAYNITPLRRATVECVKDQFGFINYEVGDSKKLFFHVKEVQDGIELQAGDEVEFSVILNQRTGKCSACNVWRVCEGPKAVAAPRPDRLVNRLKNITLDDASAPRLMVLRQPRGPDNSMGFGAERKIRQAGVID | not failed |
| QNKKSGNPILPGFHADPEVLYSHQTKRYYIYPTSDGFPGWGGSYFKVFSSKNLKTWKEETVILEMGKNVSWANGNAWAPCIEEKKIDGKYKYFFYYSANPTTNKGKQIGVAVADSPTGPFTDLGKPIITSSPTGRGQQIDVDVFTDPVSGKSYLYWGNGYMAGAELNDDMLSIKEETTVVLTPKGGTLQTYAYREAPYVIYRKGIYYFFWSVDDTGSPNYHVVYGTAQSPLGPIEVAKEPIVLIQNPKEEIYGPAHNSILQVPGKDKWYIVYHRINKNHLNDGPGWHREVCIDRMEFNPDGTIKQVIPTP | not failed |
| QNNYLQSLEVQVMLDTLRVIHNPLQDYALVALMKSPMFGFDEDELARLSLQKAEDKVHENLYEKLVNAQKMASSQKGLIHTALAEKLKQFMDILASWRLYAKTHSLYDLIWKIYNDRFYYDYVGALPNGPARQANLYALALRADQFEKSNFKGLSRFIRMIDQVLEAQ | failed |
| QQMQAESGFVQHVGFKCDNCGIEPIQGVRWHCQDCPPEMSLDFCDSCSDCLHETDIHKEDHQLEPIYRS | not failed |
| QRRLSIFVDGNNMFYAQQKNNWFFDPRRVLDYFTCDPTVRLINAFWYTGLKDSQDQRGFRDALISLGYTVRTKILKEYYDDVSGRYSQKANLDIEIVVDMFNTVDQYDQVILFSGDGDFERAIELLRSKNTHITVVSTEGMIARELRNATDCYIDLNNLRAEIEKT | failed |
| QSGATAKVSVLYIGPMEAPADAAQRLGLPAGTQVLARRRLYFRNGTPVETASSYLPWDVVKDIPELFAENPGGGGIYARLEDHGHEFAEFVETLQARPASKAEASELALSPGAPVVHLIREARTTAGVVVEVCDTLMAADQFVFEYRIPAAD | failed |
| QTEGLETVHIKGQRSYNAIATEKNGDYSSFAATVGTKIPASLREIPQSVSIITNQQVKDRNVDTFDQLARKTPGLRVLSNDDGRSSVYARGYEYSEYNIDGLPAQMQSINGTLPNLFAFDRVEVMRGPSGLFDSSGEMGGIVNLVRKRPTKAFQGHAAAGFGTHKQYKAEADVSGSLNSDGSVRGRVMAQTVGASPRPAEKNNRRETFYAAADWDINPDTVLGAGYLYQQRRLAPYNGLPADANNKLPSLPQHVFVGADWNKFKMHSHDVFADLKHYFGNGGYGKVGMRYSDRKADSNYTFAGSKLNNTGQADVAGLGTDIKQKAFAVDASYSRPFALGNTANEFVIGADYNRLRSTNEQGRSTLSKSVALDGFRALPYNGILQNARAGNKGFNHSVTEENLDETGLYAKTVFRPLEGLSLIAGGRVGHHKIESGDGKTLHKASKTKFTSYAGAVYDIDGSNSLYASASQLYTPQTSIGTDGKLLKPREGNQFEIGYKGSYMDDRLNTRVSFYRMKDKNAAAPLDSNNKKTRYAALGKRVMEGVETEISGAMTPKWQIHAGYSYLHSQIKTASNSRDEGIFLLMPKHSANLWTTYQVTSGLTIGGGVNA | failed |
| QTQVNAEKKIQVEFVSANPTSSLHVGHGRGAAYGMTVANLLEATGAQVDREYYVNDAGRQMDILATSTYLRYLELLGQPLVFPKNAYQGDYVKEIAQSIIDKDGDAYVRSVADVYRNVPEDVQYAEELDSEGNKVVLSGDKEKHIDGLIANSQQLIGQGYRVFHQAALKAILDDIKDDLADFGVTFDQWFSEASLTQKIDEALQTLDQRGYLYEKEGNIWFKSTKFGDEKDRVVKRRNGQTTYFASDIAYHLDKLQRGYTHIVDIWGSDHHGYIARVKAAIDAMGYDSSKLTVLLVQFVSLWRGGEMVQMSSRSGQFVTLRELRQEVGNDAARFYYVMRKSEQHIDFDLDLAVSQSKDNAVYYIQYAHARICRMLEKANS | failed |
| QVKSERSQKIFLEFVSANPTGPLHIGHARGAVFGDSLAKIARFLGHEVLCEYYVNDMGSQIRLLGLSVWLAYREHVLKESVTYPEVFYKGEYIIEIAKKANNDLEPSLLKENEETIIEVLSGYARDLMLLEIKDNLDALGIHFDSYASEKEVFKHKDAVFEQLEKANALYEKDSKIWLKSSLYQDESDRVLIKEDKSYTYLAGDIVYHDEKFKQDYTKYINIWGADHHGYIARVKASLEFLGYDSNKLEVLLAQMVRLLKDNEPYKMSKRAGNFILIKDVVDDVGKDALRFIFLSKRLDTHLEFDVNTLKKQDSSNPIYYIHYANSRIHTMLEKSPFSKEEVLQTP | failed |
| QVSKTYYVSKPGTLISMMTEEEANSITHLTLTGKLNAEDFRHLRDEFPSLKVLDISNAEIKMYSGKAGTYPNGKFYIYMANFVPAYAFSNVVNGVTKGKQTLEKVILSEKIKNIEDAAFKGCDNLKICQIRKKTAPNLLPEALADSVTAIFIPLGSSDAYRFKNRWEHFAFIEGEPLETTIQVGAMGKLEDEIMKAGLQPRDINFLTIEGKLDNADFKLIRDYMPNLVSLDISKTNATTIPDFTFAQKKYLLKIKLPHNLKTIGQRVFSNCGRLAGTLELPASVTAIEFGAFMGCDNLRYVLATGDKITTLGDELFGNGVPSKLIYKK | not failed |
| QYDPYKNPESAQTRRNTVLQQMYQDKNISKKEYDQAVATPVTDGLKELKQKSTYPKYMDNYLKQVISEVKQKTGKDIFTAGL | failed |
| RAKLMEERETSLKDSVEVAFDAVRLIANNPNLSEAEAKQQVKAVLTNIRYGSDGYFFAYDAQGTNLVHPIQPELVGQNLWQLQDERGDFLIQ | failed |
| RDKYYLITHGSQDPYWTSLFQGAKKAAEELKVDLQILAPPGANDVPKQVQFIESALATYPSGIATTIPSDTAFSKSLQRANKLNIPVIAVDTRPKDKTKNPYLVFLGSDNLLAGKKLGEKALELTPSAKRALVLNPQPGHIGLEKRAYGIKTILQDKGIFFEELDVGTDPNQVQSRVKSYFKIHPETNIIFCLTSQALDPLGQMLLHPDRYDFNYQPQVYSFDKTPNTVSLIHKKLVNYVMDQQPFLMGYLSITQLVLMNRYQLNPVNINTAM | not failed |
| REHDFDDLKFEHFLASAAGAFPAFLEVAEKRIIGEGVLRAVKESMRWHRAENVHFGAFLLLVPLISSWDAGGMVDIAEAARNRLRRTDFRDSLSVLEAFRLSNARVVEAGELNLKDRKTEEEIAQKKINLYEWMKMAPEENLIARELVDGFKISIEGAKFLLSFGNSGKAVVELYYHLLSKFPDPLVIAKMGREYAEKITEWAEKARTEEERKELDEKLLKDGANPGTIADLTASSIFLALAEGWR | not failed |
| REITLDDAALLQRFFVENPEYFHIVHGAAPQPDEARDEIDDALPAGWSYTHKWKIGYFDSEGRLLAFVSIVTDLLAQGVWHIGLFMLATPCHGSSLARQLHAELEAWAAGEGARWLRLSVVQDNARAQGFWNACGYAQVRTRDGIELGRLQHQVRIMIKPL | failed |
| RGNLGQSQKVLIEFVSANPTGPLHVGHGRGAAFGATLGNVLKAAGYDVTLEYYVNDAGRQMNILAVSVWLRYLELAGEPIVFPANGYKGQYVYEIAQEIWSEQGNQFVHPWISVVENLPADEPEGGDKETYIDAIIARAQSLLGKDGFANFHQHALKTVLDDIKDDLQAFGVRFDSWFSEQSLFEDGSIEKGIQALKDRGHTYEREGALWFRATDFGDEKDRVLVRANGQTTYFASDVAYHWNKYDRGFDRVIDIFGADHHGYVTRIKTAVKALGHDESALDVILVQFAILYRGGDRVQMSTRSGSFVTLRELREEVGNDAARYFYVARKPEQHMDFDLDLAKSESSDNPVYYIQYAHARICSVLRQLKERGLKWDKDMGL | failed |
